Results reported in PMC9079172, “BAG6 prevents the aggregation of neurodegeneration-associated fragments of TDP43” (iScience, 2022).

Biological target: T1, BAG6, wild type, FLAG-tagged, exogenously overexpressed (pRK5-FLAG-Bag6) (UniProt P46379 1-1132)
T1 construct: BAG6, wild type, from pRK5-FLAG-Bag6 (Liu et al., 2014); In HEK293T cells the anti-BAG6 antibody also precipitates endogenous BAG6; also called wild type BAG6; ^fBAG6; source: HEK293T or BAG6-KO HEK293T, transfected, in lysate; not shown: FLAG, N-terminal, kept
Experiment: co-IP; anti-BAG6 IP from soluble fractions of HEK293T cells overexpressing the fragments and BAG6 or BAG6ΔUBL; blots with anti-TDP43, anti-FLAG or anti-Myc; lysis/wash buffer 50 mM HEPES pH 7.5, 10% glycerol, 0.05% NP-40, 150 mM NaCl, 4°C
Settings: partners not purified

T1 sequence (P46379 whole entry): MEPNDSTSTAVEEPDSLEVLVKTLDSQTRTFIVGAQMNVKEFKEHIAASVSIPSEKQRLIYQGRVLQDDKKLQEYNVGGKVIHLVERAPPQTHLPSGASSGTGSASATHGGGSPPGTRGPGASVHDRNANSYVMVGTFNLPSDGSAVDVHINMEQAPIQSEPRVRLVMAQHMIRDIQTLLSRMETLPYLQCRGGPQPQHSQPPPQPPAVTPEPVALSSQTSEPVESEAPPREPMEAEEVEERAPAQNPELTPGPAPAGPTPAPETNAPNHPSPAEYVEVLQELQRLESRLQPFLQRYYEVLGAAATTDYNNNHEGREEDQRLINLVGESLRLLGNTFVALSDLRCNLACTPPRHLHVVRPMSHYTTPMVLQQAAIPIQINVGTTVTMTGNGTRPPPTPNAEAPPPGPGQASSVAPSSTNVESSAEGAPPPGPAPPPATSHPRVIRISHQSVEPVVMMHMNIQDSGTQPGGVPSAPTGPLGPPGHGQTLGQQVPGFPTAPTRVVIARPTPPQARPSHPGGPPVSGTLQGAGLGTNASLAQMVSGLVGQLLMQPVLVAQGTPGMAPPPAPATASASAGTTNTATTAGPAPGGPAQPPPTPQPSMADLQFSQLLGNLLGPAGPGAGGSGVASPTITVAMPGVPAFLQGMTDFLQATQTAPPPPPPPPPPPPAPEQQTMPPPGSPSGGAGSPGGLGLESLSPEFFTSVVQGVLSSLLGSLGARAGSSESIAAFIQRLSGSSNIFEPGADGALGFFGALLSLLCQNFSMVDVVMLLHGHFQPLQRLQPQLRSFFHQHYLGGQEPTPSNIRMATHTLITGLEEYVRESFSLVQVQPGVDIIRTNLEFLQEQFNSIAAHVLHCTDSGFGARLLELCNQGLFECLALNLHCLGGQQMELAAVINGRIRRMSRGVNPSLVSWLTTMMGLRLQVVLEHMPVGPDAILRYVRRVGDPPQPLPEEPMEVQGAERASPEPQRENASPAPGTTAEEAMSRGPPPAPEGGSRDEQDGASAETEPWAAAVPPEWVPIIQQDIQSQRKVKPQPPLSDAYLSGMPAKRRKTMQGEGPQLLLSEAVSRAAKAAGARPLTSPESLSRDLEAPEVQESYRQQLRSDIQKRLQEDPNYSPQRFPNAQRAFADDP

B1: TDP43^219 (Val^219-TDP43^f), C-terminal fragment of human TDP43, amino acids 219 - 414, bearing N-terminal Val and a C-terminal FLAG tag (domain or fragment, UniProt Q13148 219-414, looked up)
chain: VVFIPKPFRAFAFVTFADDQIAQSLCGEDLIIKGISVHISNAEPKHNSNRQLERSGRFGGNPGGFGNQGGFGNSRGGGAGLGNNQGSNMGGGMNFGAFSINPAMMAAAQAALQSSWGMMGMLASQQNQSGPSGNNQNQGNMQREPNQAFGSGNNSYSGSNSGAAIGWGSASNAGSGSGFNGGFGSSMDSKSSGWGM
notes: the part up to the last residue of Ub is cut off co-translationally; not shown: FLAG, C-terminal, kept
- fold affinity relative to TDP43^247 (densitometry of the co-immunoprecipitate): ~5 fold
